{
  "source": "paper PMC2112911",
  "key": {"[1]": {"target": "Acanthamoeba myosin-II (Acanthamoeba)", "test": "electron microscopy"}, "[2]": {"target": "Acanthamoeba myosin-II (Acanthamoeba)", "test": "electron microscopy", "remark": "listed apart in the source"}, "[3]": {"target": "Acanthamoeba myosin-II, 2.6 heavy chain phosphates per molecule (Acanthamoeba)", "test": "sedimentation"}, "[4]": {"target": "Acanthamoeba myosin-II, 2.6 heavy chain phosphates per molecule (Acanthamoeba)", "test": "sedimentation", "remark": "listed apart in the source"}, "[5]": {"target": "Acanthamoeba myosin-II, 2.6 heavy chain phosphates per molecule (Acanthamoeba)", "test": "sedimentation", "remark": "listed apart in the source"}, "[6]": {"target": "Acanthamoeba myosin-II, 2.6 heavy chain phosphates per molecule (Acanthamoeba)", "test": "sedimentation", "remark": "listed apart in the source"}, "[7]": {"target": "Acanthamoeba myosin-II, 4.9 heavy chain phosphates per molecule (Acanthamoeba)", "test": "sedimentation"}, "[8]": {"target": "Acanthamoeba myosin-II, dephosphorylated, 0.8 heavy chain phosphates per molecule (Acanthamoeba)", "test": "sedimentation"}},
  "note": "Several values for one entry are separate records, joined by “and”; a condition that tells them apart may be missing. Equal entries are not always repeated. Where two headings read alike, the source gives them in different places.",
  "data": [
    {"substance": "Acanthamoeba myosin-II (complex)", "values": [
      {"measurement": "stoichiometry N", "setting": "[1]", "value": "> 35"},
      {"measurement": "stoichiometry N", "setting": "[2]", "value": "16 and > 12"}
    ]},
    {"substance": "Acanthamoeba myosin-II, 2.6 heavy chain phosphates per molecule (complex)", "values": [
      {"measurement": "critical concentration", "setting": "[3]", "value": "14 µg/mL and 18 µg/mL and 15 µg/mL"},
      {"measurement": "critical concentration", "setting": "[4]", "value": "20 µg/mL and 15 µg/mL"},
      {"measurement": "critical concentration", "setting": "[5]", "value": 26, "unit": "µg/mL"},
      {"measurement": "critical concentration", "setting": "[6]", "value": "24 µg/mL and 32 µg/mL"}
    ]},
    {"substance": "Acanthamoeba myosin-II, 4.9 heavy chain phosphates per molecule (complex)", "values": [
      {"measurement": "critical concentration", "setting": "[7]", "value": "< 5", "unit": "µg/mL"}
    ]},
    {"substance": "Acanthamoeba myosin-II, dephosphorylated, 0.8 heavy chain phosphates per molecule (complex)", "values": [
      {"measurement": "critical concentration", "setting": "[8]", "value": 18, "unit": "µg/mL"}
    ]}
  ]
}
